Data as given in the supplement of paper PMC9732359.
± gives the uncertainty stated by the source.

Experiment: protein stability index of a GFP-peptide fusion (yeast GPS) (PSI 1-4); higher = more stable; sorted into four equal gates, so the index is relative within each strain
Method in brief: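 Peptides tiling yeast proteins in 17-residue segments were fused downstream of GFP, with Cherry expressed from the same plasmid. As a pooled library in yeast, mid-log cultures grown in leucine-free medium were sorted into four equal gates by GFP/Cherry fluorescence ratio. Gate plasmids were PCR-amplified and Illumina-sequenced, and barcodes linked reads to strains. Each peptide received a protein stability index equal to the sum of each gate's read frequency times its gate number.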

Sequence	protein stability index (doa10∆)	protein stability index (pdr5∆)	protein stability index (san1∆)	protein stability index (ubr1∆)
NTTLQDNVSFIEEAKSI [REC8]	3.1 ± 0.084	3.22 ± 0.091	3.23 ± 0.064	3.17 ± 0.066
TGPIEPKARQELPTQLA [RRP46]	2.82 ± 0.072	2.79 ± 0.074	3.21 ± 0.089	3.04 ± 0.056
IGIMASDGIVLAAERKV [PRE9]	2.79 ± 0.29		3.37 ± 0.15	
NVKEEETVAKSKNAERK [RPS8A]	3.07 ± 0.038	3.09 ± 0.035	3.215 ± 0.022	3.001 ± 0.029
RRLHKVLRPFLLRRLKK [SNF2]	2.09 ± 0.078	2.53 ± 0.1	1.89 ± 0.12	2.53 ± 0.07
SVGVIINKMVGNRYLEK [RPL21A]	3.01 ± 0.14	3.35 ± 0.13	2.43 ± 0.2	3 ± 0.095
SPFRPLEKTSRILNFFD [YMR153W/NUP53]	2.85 ± 0.13	3.22 ± 0.093	2.72 ± 0.087	2.83 ± 0.07
CNAQPITRSVMRFNIEI [BRR2]	2.71 ± 0.082	2.82 ± 0.066	2.77 ± 0.058	3.02 ± 0.064
VNGVPLRRVNARYVIAT [RPL6A]	1.61 ± 0.095	1.9 ± 0.066	1.37 ± 0.11	1.23 ± 0.05
GVMLWKEFDETIFNLPK [FAS1]	1.75 ± 0.073	1.56 ± 0.12	1.15 ± 0.21	2.81 ± 0.2
SNTSTLKNMLYVLSTAV [BRR2]	1.57 ± 0.066	1.53 ± 0.09	1.17 ± 0.18	1.38 ± 0.059
PGLEFLDDTTIPVGLMA [MCD1]	1.99 ± 0.057	2.71 ± 0.059	3.03 ± 0.041	2.52 ± 0.055
SVNPSNKPIKRMLSSIL [SWP82]	2.95 ± 0.065	2.99 ± 0.044	2.93 ± 0.045	2.99 ± 0.037
IDGSTSHEERIEAIDEY [ISW2]	3.26 ± 0.079	3.26 ± 0.11	3.06 ± 0.091	3.32 ± 0.047
TKSPAYPMMHQVRNQVF [RGR1]	1.78 ± 0.047	1.88 ± 0.054	1.8 ± 0.077	2.23 ± 0.047
FTLTYDIIETFSSKRKT [YMR129W/POM152]	1.88 ± 0.05	2.07 ± 0.064	1.69 ± 0.077	2.33 ± 0.056
SYAGISTDKLVQCHGSF [SIR2]	2.57 ± 0.12	2.76 ± 0.11	2.78 ± 0.13	2.98 ± 0.092
EDPDQEECSGRRWNKLC [YGL100W/SEH1]	2.24 ± 0.07	2.16 ± 0.083	1.88 ± 0.1	2.27 ± 0.057
IPDIGDLPDTEGLELLG [PRP8]	3.08 ± 0.14	3.15 ± 0.15	3.35 ± 0.063	3.29 ± 0.046
SFSFSIPSKNTPDASKP [YLR335W/NUP2]	2.42 ± 0.04	2.45 ± 0.042	2.28 ± 0.045	2.5 ± 0.037
MQRQQQGISGSQQNIVP [SNF2]	2.91 ± 0.059	3.14 ± 0.05	3.19 ± 0.046	3.01 ± 0.047
DVYTLPSYVHFKVQIIE [YML103C/NUP188]	1.61 ± 0.055	1.71 ± 0.05	1.43 ± 0.069	1.66 ± 0.033
SSTTGMSYVVRILSTLD [RPT3]	2.31 ± 0.082	2.42 ± 0.084	2.49 ± 0.053	2.91 ± 0.066
GSSDEDLKSLNVRDDMK [SSN2]	3.29 ± 0.13	3.58 ± 0.11	3.38 ± 0.078	3.2 ± 0.11
ILNINNSTSKNTLLQQQ [SWI1]	2.37 ± 0.052	2.87 ± 0.08	2 ± 0.069	2.4 ± 0.047
KKVKLAVLSYYKVDAEG [RPS31]	1.62 ± 0.084	2.32 ± 0.082	2.52 ± 0.074	1.95 ± 0.068
RKIGISIDDHPYNLNLF [RPC31]	1.75 ± 0.043	2.04 ± 0.05	1.71 ± 0.098	1.9 ± 0.044
